Experimental data as given in patent US20230051715A1 (MABWELL THERAPEUTICS, published 2023).
Each block holds one binder with its values, some of them ahead of it.

Legend:
[1] = target: T1, full-length human C1s (produced in house) (human, UniProt P09871 16-688); assay: BLI (Octet RED96e), antibody on AHC biosensor; C1s Species: Human; R^2 0.9983
T1 construct: Called full-length; Partly auto-cleaved at R422-I423 on blots; also called HuC1s; Hu C1s
T1 sequence: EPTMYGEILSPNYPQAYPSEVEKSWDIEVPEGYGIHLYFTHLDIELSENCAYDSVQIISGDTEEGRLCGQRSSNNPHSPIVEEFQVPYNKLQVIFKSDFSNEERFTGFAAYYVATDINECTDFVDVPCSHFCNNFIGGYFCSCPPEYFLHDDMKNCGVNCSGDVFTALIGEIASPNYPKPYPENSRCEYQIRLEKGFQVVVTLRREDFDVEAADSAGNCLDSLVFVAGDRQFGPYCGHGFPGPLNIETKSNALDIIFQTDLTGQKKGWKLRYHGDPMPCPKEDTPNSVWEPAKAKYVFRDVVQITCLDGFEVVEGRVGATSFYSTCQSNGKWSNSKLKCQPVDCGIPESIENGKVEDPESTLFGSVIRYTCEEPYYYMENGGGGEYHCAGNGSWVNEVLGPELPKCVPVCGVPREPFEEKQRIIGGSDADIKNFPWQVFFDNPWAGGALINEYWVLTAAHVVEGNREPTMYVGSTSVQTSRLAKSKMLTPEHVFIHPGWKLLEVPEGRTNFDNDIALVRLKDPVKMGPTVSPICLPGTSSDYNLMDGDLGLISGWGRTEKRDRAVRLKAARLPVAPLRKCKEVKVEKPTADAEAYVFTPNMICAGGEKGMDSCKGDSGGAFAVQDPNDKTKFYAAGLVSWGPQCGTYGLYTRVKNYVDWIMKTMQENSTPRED
Source text: (§1) At last, analyte was dissociated in 1×KB for 360 sec. Data analysis was done using OCTET® Data Analysis HT Software (Sartorius AG).

[2] = target: T2, human C1s mutant M5 (K336G) (human, UniProt P09871 16-688); assay: ELISA, plate coated with human C1s mutant M5: K336G, OD450nm
T2 construct: The entry is the mutant itself
T2 sequence: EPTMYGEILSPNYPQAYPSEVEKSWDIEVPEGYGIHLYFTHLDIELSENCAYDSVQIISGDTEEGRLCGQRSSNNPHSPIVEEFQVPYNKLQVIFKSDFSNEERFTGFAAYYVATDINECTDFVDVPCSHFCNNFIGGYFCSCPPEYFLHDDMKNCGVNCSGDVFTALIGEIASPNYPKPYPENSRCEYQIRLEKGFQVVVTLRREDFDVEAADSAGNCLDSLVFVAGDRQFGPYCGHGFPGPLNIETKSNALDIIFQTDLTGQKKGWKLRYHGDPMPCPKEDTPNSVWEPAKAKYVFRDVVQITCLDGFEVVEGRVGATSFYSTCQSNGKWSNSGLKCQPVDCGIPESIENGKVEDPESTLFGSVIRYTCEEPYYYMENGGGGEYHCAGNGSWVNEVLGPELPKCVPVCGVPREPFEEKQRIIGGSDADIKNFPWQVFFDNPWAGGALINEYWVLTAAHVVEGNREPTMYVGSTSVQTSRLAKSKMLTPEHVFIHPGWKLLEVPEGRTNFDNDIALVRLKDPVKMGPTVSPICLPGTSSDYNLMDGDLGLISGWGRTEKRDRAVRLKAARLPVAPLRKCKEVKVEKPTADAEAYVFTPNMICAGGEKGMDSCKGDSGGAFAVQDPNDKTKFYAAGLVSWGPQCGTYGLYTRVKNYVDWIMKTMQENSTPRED
Description: ELISA was carried out by first coating 96-well plates with 200 ng/well of full-length or truncated C1s proteins overnight. The next morning, plates were blocked with SuperBlock T20 blocking buffer (Thermo Scientific 37536) for 1 h with gentle shaking. Then, various concentrations of anti-C1s antibodies diluted in SuperBlock T20 blocking buffer were added to the plates and incubated for 1 h with gentle shaking. Mouse IgG (Sigma-Aldrich 15381) and human IgG1 (BioXCell BP0297) were used as negative controls. The plates were washed before incubating with HRP conjugated secondary antibodies diluted in SuperBlock T20 blocking buffer (goat anti-mouse IgG (H+L) cross-adsorbed secondary antibody HRP (Invitrogen G-21040) or goat anti-human IgG antibody, HRP conjugate (Millipore AP309P)) for 1 h with gentle shaking. At last, the plates were washed and color developed with ELISA liquid HRP substrate (Sigma-Aldrich), followed by stopping the reaction with addition of 1M H₂SO₄ in the same volume as the ELISA liquid substrate. Bound antibody was measured by absorbance at OD₄₅₀ₙₘ.
Binding of anti-C1s antibodies to mutants M1-M20 of human C1s was measured by ELISA as described in Example 4, and results are shown in FIGS. 6B-6U. […]

[3] = target: T1, full-length human C1s (produced in …); assay: BLI (Octet RED96e), antibody on AHC biosensor; C1s Species: Human; R^2 0.9992
Source text: as §1

Kd [1]: 0.012 nM
koff [1]: 3.9e-05 s⁻¹
kon [1]: 3.2e+06 M⁻¹ s⁻¹
B1: Anti-C1s antibody 2-7 (antibody, human IgG1, kappa, V domains shown)
VH: EVKLEESGGGLVPPGGSMKLSCVASGFTFSNYFMNWVRQSPEKGLEWVAEIRLKFTNYATHYAESVEGRFTISRDDSKSSVYLQMNNLRAEDTGIYYCTRDYGSRNGYFDYWGQGTTLTVSS
VL: DIVMTQAAPSVPVTPGESVSISCRSSKSLLHSNGNTFLYWFLQRPGQSPQLLIYRMSNLASGVPDRFSGSGSGTAFTLRVSRVEAEDVGIYYCMQHLEYPYTFGGGTKLEIKT
notes: the HC/LC entries may hold it too; also called clone 2-7

EC50 [2]: 0.015 µg/mL
B2: Anti-C1s antibody hz2-7(H1L2) (antibody, V domains shown)
VH: EVQLLESGGGLVQPGGSLRLSCAASGFTFSNYFMNWVRQAPGKGLEWVSEIRLKFTNYATHYADSVKGRFTISRDDSKSTLYLQMNSLRAEDTAVYYCTRDYGSRNGYFDYWGQGTLVTVSS
VL: DIVMTQTPLSLPVTPGEPASISCRSSKSLLHSNGNTFLYWFLQKPGQSPQLLIYRMSNLASGVPDRFSGSGSGTDFTLKISRVEAEDVGVYYCMQHLEYPYTFGGGTKLEIKR
notes: Humanized, human IgG1 / kappa; also called hz2-7(1L2)

Kd [3]: 0.032 nM
koff [3]: 0.00012 s⁻¹
kon [3]: 3.8e+06 M⁻¹ s⁻¹
B3: Anti-C1s antibody 2-8 (antibody, V domains shown)
VH: EVQLQQSGAELVRPGALVKLSCKASGFNIKEYYMHWVKQRPEQGLEWIGWIDPENGDTIYDPKFQGKASITADTSSNTAYLQLSSLTSEDTAVYYCARSRLFFAYWGQGTLVTVSA
VL: DIVMTQSHKFMSTSVGDRVSFTCKASQDVRTAVDWYQQKPGQSPKLLIYSASYRYTGVPDRFTGTGSGTDFTFTISSVQAEDLAVYFCQQQYTTPYTFGGGTKLEIKT
notes: the HC/LC entries may hold it too; also called clone 2-8
